In experiment [1] the target is T1, FPR1 (UniProt P21462 1-350, limits assumed).
T1 sequence (looked up): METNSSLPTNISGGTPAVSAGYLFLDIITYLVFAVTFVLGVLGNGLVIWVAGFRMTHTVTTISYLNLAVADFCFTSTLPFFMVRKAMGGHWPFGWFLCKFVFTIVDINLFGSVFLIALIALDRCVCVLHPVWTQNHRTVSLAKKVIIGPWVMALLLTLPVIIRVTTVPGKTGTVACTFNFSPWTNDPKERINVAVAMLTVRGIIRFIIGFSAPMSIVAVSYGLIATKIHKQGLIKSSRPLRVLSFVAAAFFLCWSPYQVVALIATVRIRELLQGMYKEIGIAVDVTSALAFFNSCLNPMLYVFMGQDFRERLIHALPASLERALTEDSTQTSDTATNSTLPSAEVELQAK
The experiment is described as follows: cell-based or functional assay.

Experiment [2] addresses T2, formyl peptide receptor 2 (FPR2) (UniProt P25090 1-351, limits assumed).
T2 sequence (looked up): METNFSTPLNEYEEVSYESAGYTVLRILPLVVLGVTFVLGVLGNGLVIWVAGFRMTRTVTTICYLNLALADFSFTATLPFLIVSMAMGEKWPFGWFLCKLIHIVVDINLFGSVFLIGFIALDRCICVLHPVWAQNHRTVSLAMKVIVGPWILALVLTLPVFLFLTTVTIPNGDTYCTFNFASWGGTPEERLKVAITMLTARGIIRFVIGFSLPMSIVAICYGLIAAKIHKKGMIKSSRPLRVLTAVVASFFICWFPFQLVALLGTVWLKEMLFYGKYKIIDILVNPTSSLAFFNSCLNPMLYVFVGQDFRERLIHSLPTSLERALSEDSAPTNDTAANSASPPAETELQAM
Put plainly: cell-based or functional assay.

Where only a bound is given, the exact number is not on record here.

B1: peptide of SEQ ID NO 157 (peptide)
peptide: RWRYTYM
HELM: PEPTIDE1{R.W.R.Y.T.Y.[dM].[am]}$$$$V2.0; N-terminus assumed
SMILES: CSCC[C@@H](NC(=O)[C@H](Cc1ccc(O)cc1)NC(=O)[C@@H](NC(=O)[C@H](Cc1ccc(O)cc1)NC(=O)[C@H](CCCNC(=N)N)NC(=O)[C@H](Cc1c[nH]c2ccccc12)NC(=O)[C@@H](N)CCCNC(=N)N)[C@@H](C)O)C(N)=O
As to B1, the “EC50 for [Ca2+]” value was > 10 µM in experiment [1] and < 0.01 µM in experiment [2].

B2: peptide of SEQ ID NO 25 (peptide)
peptide: PMKYKVM
HELM: PEPTIDE1{P.M.K.Y.K.V.[dM].[am]}$$$$V2.0; N-terminus assumed
SMILES: CSCC[C@H](NC(=O)[C@@H]1CCCN1)C(=O)N[C@@H](CCCCN)C(=O)N[C@@H](Cc1ccc(O)cc1)C(=O)N[C@@H](CCCCN)C(=O)N[C@H](C(=O)N[C@H](CCSC)C(N)=O)C(C)C
For B2, the “EC50 for [Ca2+]” value in experiment [1] was > 10 µM; in experiment [2], < 0.01 µM.

B3: peptide of SEQ ID NO 29 (peptide)
peptide: RWRYRVM
HELM: PEPTIDE1{R.W.R.Y.R.V.[dM].[am]}$$$$V2.0; N-terminus assumed
SMILES: CSCC[C@@H](NC(=O)[C@@H](NC(=O)[C@H](CCCNC(=N)N)NC(=O)[C@H](Cc1ccc(O)cc1)NC(=O)[C@H](CCCNC(=N)N)NC(=O)[C@H](Cc1c[nH]c2ccccc12)NC(=O)[C@@H](N)CCCNC(=N)N)C(C)C)C(N)=O
Take B3: the “EC50 for [Ca2+]” value in experiment [1] was > 10 µM; in experiment [2], < 0.01 µM.

B4: peptide of SEQ ID NO 21 (peptide)
peptide: HMKYKVM
HELM: PEPTIDE1{H.M.K.Y.K.V.[dM].[am]}$$$$V2.0; N-terminus assumed
SMILES: CSCC[C@H](NC(=O)[C@@H](N)Cc1c[nH]cn1)C(=O)N[C@@H](CCCCN)C(=O)N[C@@H](Cc1ccc(O)cc1)C(=O)N[C@@H](CCCCN)C(=O)N[C@H](C(=O)N[C@H](CCSC)C(N)=O)C(C)C
For B4, the “EC50 for [Ca2+]” value in experiment [1] was > 10 µM; in experiment [2], < 0.01 µM.

B5: peptide of SEQ ID NO 19 (peptide)
peptide: MKYKVM
HELM: PEPTIDE1{[CCCC(=O)[*:2]].M.K.Y.K.V.[dM].[am]}$$$$V2.0
SMILES: CCCC(=O)N[C@@H](CCSC)C(=O)N[C@@H](CCCCN)C(=O)N[C@@H](Cc1ccc(O)cc1)C(=O)N[C@@H](CCCCN)C(=O)N[C@H](C(=O)N[C@H](CCSC)C(N)=O)C(C)C
As for B5, the “EC50 for [Ca2+]” value in experiment [1] is > 10 µM; in experiment [2] it was < 0.01 µM.

B6: peptide of SEQ ID NO 23 (peptide)
peptide: HMKYKVM
HELM: PEPTIDE1{[CCCC(=O)[*:2]].H.M.K.Y.K.V.[dM].[am]}$$$$V2.0
SMILES: CCCC(=O)N[C@@H](Cc1c[nH]cn1)C(=O)N[C@@H](CCSC)C(=O)N[C@@H](CCCCN)C(=O)N[C@@H](Cc1ccc(O)cc1)C(=O)N[C@@H](CCCCN)C(=O)N[C@H](C(=O)N[C@H](CCSC)C(N)=O)C(C)C
For the molecule B6, the “EC50 for [Ca2+]” value in experiment [1] was > 10 µM; in experiment [2] it was < 0.01 µM.

B7: peptide of SEQ ID NO 24 (peptide)
peptide: HMKYKVM
HELM: PEPTIDE1{[CCCCCCCC(=O)[*:2]].H.M.K.Y.K.V.[dM].[am]}$$$$V2.0
SMILES: CCCCCCCC(=O)N[C@@H](Cc1c[nH]cn1)C(=O)N[C@@H](CCSC)C(=O)N[C@@H](CCCCN)C(=O)N[C@@H](Cc1ccc(O)cc1)C(=O)N[C@@H](CCCCN)C(=O)N[C@H](C(=O)N[C@H](CCSC)C(N)=O)C(C)C
Consider B7, for which the results for the “EC50 for [Ca2+]” value in experiment [1] and in experiment [2] were > 10 µM and < 0.01 µM, respectively.

B8: peptide of SEQ ID NO 22 (peptide)
peptide: HMKYKVM
HELM: PEPTIDE1{[ac].H.M.K.Y.K.V.[dM].[am]}$$$$V2.0
SMILES: CSCC[C@H](NC(=O)[C@H](Cc1c[nH]cn1)NC(C)=O)C(=O)N[C@@H](CCCCN)C(=O)N[C@@H](Cc1ccc(O)cc1)C(=O)N[C@@H](CCCCN)C(=O)N[C@H](C(=O)N[C@H](CCSC)C(N)=O)C(C)C
Consider B8, for which the “EC50 for [Ca2+]” value is > 10 µM in experiment [1] and < 0.01 µM in experiment [2].

B9: peptide of SEQ ID NO 28 (peptide)
peptide: PMKYKVM
HELM: PEPTIDE1{[CCCCCCCC(=O)[*:2]].P.M.K.Y.K.V.[dM].[am]}$$$$V2.0
SMILES: CCCCCCCC(=O)N1CCC[C@H]1C(=O)N[C@@H](CCSC)C(=O)N[C@@H](CCCCN)C(=O)N[C@@H](Cc1ccc(O)cc1)C(=O)N[C@@H](CCCCN)C(=O)N[C@H](C(=O)N[C@H](CCSC)C(N)=O)C(C)C
Take B9: the “EC50 for [Ca2+]” value in experiment [1] is > 10 µM; in experiment [2] it was < 0.01 µM.

B10: peptide of SEQ ID NO 17 (peptide)
peptide: MKYKVM
HELM: PEPTIDE1{M.K.Y.K.V.[dM].[am]}$$$$V2.0; N-terminus assumed
SMILES: CSCC[C@H](N)C(=O)N[C@@H](CCCCN)C(=O)N[C@@H](Cc1ccc(O)cc1)C(=O)N[C@@H](CCCCN)C(=O)N[C@H](C(=O)N[C@H](CCSC)C(N)=O)C(C)C
As for B10, the “EC50 for [Ca2+]” value was > 10 µM in experiment [1] and < 0.01 µM in experiment [2].

B11: peptide of SEQ ID NO 156 (peptide)
peptide: RWRYFYM
HELM: PEPTIDE1{R.W.R.Y.F.Y.[dM].[am]}$$$$V2.0; N-terminus assumed
SMILES: CSCC[C@@H](NC(=O)[C@H](Cc1ccc(O)cc1)NC(=O)[C@H](Cc1ccccc1)NC(=O)[C@H](Cc1ccc(O)cc1)NC(=O)[C@H](CCCNC(=N)N)NC(=O)[C@H](Cc1c[nH]c2ccccc12)NC(=O)[C@@H](N)CCCNC(=N)N)C(N)=O
Turning to B11, the “EC50 for [Ca2+]” value in experiment [1] is > 10 µM; in experiment [2], < 0.01 µM.

B12: peptide of SEQ ID NO 18 (peptide)
peptide: MKYKVM
HELM: PEPTIDE1{[ac].M.K.Y.K.V.[dM].[am]}$$$$V2.0
SMILES: CSCC[C@H](NC(C)=O)C(=O)N[C@@H](CCCCN)C(=O)N[C@@H](Cc1ccc(O)cc1)C(=O)N[C@@H](CCCCN)C(=O)N[C@H](C(=O)N[C@H](CCSC)C(N)=O)C(C)C
B12: the “EC50 for [Ca2+]” value was > 10 µM in experiment [1] and < 0.01 µM in experiment [2].

B13: peptide of SEQ ID NO 26 (peptide)
peptide: PMKYKVM
HELM: PEPTIDE1{[ac].P.M.K.Y.K.V.[dM].[am]}$$$$V2.0
SMILES: CSCC[C@H](NC(=O)[C@@H]1CCCN1C(C)=O)C(=O)N[C@@H](CCCCN)C(=O)N[C@@H](Cc1ccc(O)cc1)C(=O)N[C@@H](CCCCN)C(=O)N[C@H](C(=O)N[C@H](CCSC)C(N)=O)C(C)C
On to B13, for which the “EC50 for [Ca2+]” value in experiment [1] is > 10 µM; in experiment [2], < 0.01 µM.

B14: peptide of SEQ ID NO 27 (peptide)
peptide: PMKYKVM
HELM: PEPTIDE1{[CCCC(=O)[*:2]].P.M.K.Y.K.V.[dM].[am]}$$$$V2.0
SMILES: CCCC(=O)N1CCC[C@H]1C(=O)N[C@@H](CCSC)C(=O)N[C@@H](CCCCN)C(=O)N[C@@H](Cc1ccc(O)cc1)C(=O)N[C@@H](CCCCN)C(=O)N[C@H](C(=O)N[C@H](CCSC)C(N)=O)C(C)C
For the molecule B14, the “EC50 for [Ca2+]” value in experiment [1] is > 10 µM; in experiment [2], < 0.01 µM.

The record behind these values is patent US20250361268A1, “NOVEL ANTI-INFLAMMATORY PEPTIDE AND USE THEREOF” (NOVACELL TECHNOLOGY INC., priority 2022, published 2025).
